Measurements reported in patent US12527862B2, “Bactericidal/permeability increasing protein for use in a method of immunization, preferably as an adjuvant in a method of vaccination” (UNIVERSITÄT REGENSBURG, priority 2018, dated 2026).

Columns and labels:
[1] = test system: bone marrow derived dendritic cells (BMDCs); assay: FACS surface expression of maturation markers/costimulatory molecules on BMDCs; assay type: cell-based, C57BL/6J mice; settings: huBPI 200 nM, 18 h, vs unstimulated cells, n=4 (FIG. 1)
Procedure: BMDCs were generated from the bone marrow of male C57BL/6J mice at the age of approximately 3 to 7 months, which were bred under SPF conditions. BMDCs were generated as previously described. BMDCs were harvested on day 7 by rinsing the dish in order to obtain the non-adherent and loosely-adherent cell fractions.
Cell Stimulation 5×10^4 BMDCs per well were seeded into a tissue-culture-treated 96-well plate in VLE-RPMI 1640 media (10% FCS, 10% Penicillin-Streptomycin, 50 µM β-Mercaptoethanol) and stimulated with 200 nM huBPI.
BMDCs were stimulated with huBPI (200 nM) for 18 h. After the stimulation period, the stimulated and unstimulated cells were incubated with Fc-Block and stained using the indicated antibodies (Table 1) and the respective isotype controls (Table 2). 7-Aminoactinomycin D (7-AAD, #00-6993-50, eBioscience) positive stained cells were excluded from the analysis. Flow cytometry measurement was performed using the instrument BD FACS Canto™ II (BD Bioscience). Data was analyzed using BD FACSDiva™ software v.7.0 (BD Bioscience) as well as FlowJo v.10 (Tree Star).

[2] = test system: bone-marrow derived dendritic cells; assay: Microarray gene expression analysis in BMDCs; assay type: cell-based, C57BL/6J mice; settings: 4 h
Procedure: All methods mentioned in this example were carried out as described in Example 1. BMDCs were seeded into a tissue-culture-treated 96-well plate in VLE-RPMI 1640 media (10% FCS, 10% Penicillin-Streptomycin, 50 μM β-Mercaptoethanol) and stimulated with 200 nM huBPI or muBPI. 4 h after stimulation, gene expression analysis was performed by microarray analysis (Affymetrix Mouse Gene 2.0 ST, FIGS. 2A and 2B).

BMDCs = assay: Cytokine protein secretion by BMDCs (Luminex); assay type: cell-based, C57BL/6J mice
Procedure: All methods mentioned in this example were carried out as described in the preceding examples. Cells were stimulated with Zymosan depleted (Zymd, 5 μg/ml) from Invivogen (San Diego, CA, USA) or (R)-Pam3CSK4 (bLP, 10 nM) from EMC Microcollections GmbH (Tübingen, Germany). Protein secretion analysis was performed using the supernatants.
To quantify the interleukin and chemokine protein-level after stimulation with huBPI, Zymd, and (R)-Pam CSK4, a multiplex-system was used and determined by using the Luminex® technology (Austin, TX, USA). The cytokines were captured with anti-mouse capture-antibodies and detected by biotinylated antibodies specific for the respective protein (Table 3). Protein concentrations were calculated using a reconstituted standard curve of the analyzed proteins (SM039, #LMC4031, Lot #1438354; Thermo Fisher Scientific; Standard Mix 1a, #EPX010-20603-901, Lot #111709101, eBioscience).

[3] = test system: murine dendritic cells (BMDC); assay: TNFα ELISA in murine dendritic cells (BMDC); assay type: cell-based; settings: LPS Ec 10 ng/ml or BPI 100 nM, 18 h, ELISA (FIG. 4A)
Procedure: (§1) Generation of BMDM was carried out similarly to BMDCs; MCSF was used instead of GMSCF for differentiation of BMDM. Cells were re-plated on day 1 of culture and harvested on day 5. On day 1, cells were seeded in new plates and harvested on day 5 for the experiments. Cells were stimulated with LPS Ec (10 ng/ml) or BPI (100 nM) for 18 h before supernatants were collected. TNFα levels were determined by ELISA (OPTEIA™ Murine TNFα ELISA Set, BD Bioscience, Heidelberg, Germany).

[4] = test system: murine macrophages (BMDM); assay: TNFα ELISA in murine macrophages (BMDM); assay type: cell-based; settings: LPS Ec 10 ng/ml or BPI 100 nM, 18 h, ELISA (FIG. 4B)
Procedure: as §1

B1: bactericidal/permeability-increasing protein (protein)
chain: RIKIPDYSDSFKIKHLGKGHYSFYSMDIREFQLPSSQISMVPNVGLKFSISNANIKISGKWKAQKRFLKMSGNFDLSIEGMSISADLKLGSNPTSGKPTITCSSCSSHINSVHVHISKSKVGWLIQLFHKKIESALRNKMNSQVCEKVTNSVSSELQPYFQTLPVMTKIDSVAGINYGLVAPPATTAETLDVQMKGEFYSENHHNPPPFAPPVMEFPAAHDRMVYLGLSDYFFNTAGLVYQEAGVLKMTLRDDMIPKESKFRLTTKFFGTFLPEVAKKFPNMKIQIHVSASTPPHLSVQPTGLTFYPAVDVQAFAVLPNSSLASLFLIGMHTTGSMEVSAESNRLVGELKLDRLLLELKHSNIGPFPVELLQDIMNYIVPILVLPRVNEKLQKGFPLPTPARVQLYNVVLQPHQNFLLFGADVVYK
modifications: labeled with NT647 (Monolith NT Protein Labeling Kit RED-NHS) in the MST experiments
notes: recombinant human BPI, aa32-487 of huBPI with N-terminal HA signal peptide, expressed in HEK293T cells
expression of costimulatory receptors CD40, CD80, and CD86 [1]: promotes expression of costimulatory receptors CD40, CD80, and CD86
immunostimulatory effect on BMDCs (gene expression) ([2]; 200 nM huBPI or muBPI, microarray (FIG. 2A)): shows an immunostimulatory effect on BMDCs
induced genes important for activation and priming of T cells ([2]; 200 nM, microarray (FIG. 2B)): IL-2 is the highest induced cytokine
IL-4 level (BMDCs; BMDCs (FIG. 12)): not induced
IL-2, IL-12p40/p70, and IL-6 protein secretion (BMDCs; Luminex, n>7, 4h (FIG. 3)): increase of IL-2, IL-12p40/p70, and IL-6 protein secretion
stimulatory effect on the expression of IL-6 (IL-6 level), BPI vs Zymd vs bLP (BMDCs; Zymd 5 μg/ml, bLP 10 nM, Luminex, n>7, 4h (FIG. 3)): comparable
increase of IL-2 and IL12p40/p70 compared to Zymd and bLP (BMDCs; vs Zymd 5 μg/ml and bLP 10 nM, Luminex, n>7, 4h (FIG. 3)): significantly higher
TNFα secretion by dendritic cells [3]: secrete TNFα
TNFα secretion by macrophages [4]: not in response to stimulation with BPI
